Experimental data taken from patent US10526416B2, “Anti-HER3 antibodies and uses of same” (Yeda Research and Development Co. Ltd., priority 2014, dated 2020).

Tested on: BXPC3-luc cells
Test: Antibody-dependent cellular cytotoxicity (ADCC) luciferase assay with human PBMC
Type: cell-based
Conditions: 24 h
Description: (FIGS. 5A and 5B) The mAb ability to degrade HER3 after cell treatment was determined as follows. N87 cells were treated for 3 h at 37° C. with 10 μg/ml mAb. After cell lysis and protein extraction, the samples were subjected to immunoblotting with the indicated Ab. (FIG. 5C) The experiment shown in FIG. 5A was performed on 6 other cancer cell lines. (FIG. 5D) The mAb capacity to induce ADCC is reported. BXPC3-luc cells were incubated with the indicated mAbs and secondarily with human PBMC cells for 24 h. Cell killing was detected by measuring the luminescence after final addition of luciferine. *** […], ANOVA and post hoc tests.
ADCC was evaluated with a luciferase-activity assay. Using 96-well white plates, BXPC3-luc (4,000 cells/well) were pre-incubated for 30 min with the indicated antibodies. Ficoll-purified human peripheral blood mononuclear cells (PBMCs) from buffy coat were then added at a 10:1 effector to target cell ratio (E:T). […] Bioluminescence was determined using the Wallac Trilux 1450 Microbeta liquid scintillation and luminescence counter (Perkin-Elmer, MA). Percentage of cellular cytotoxicity was calculated using the following formula: percentage of specific lysis=[bioluminescence in experimental point−basal bioluminescence]/[bioluminescence in total lysis−basal bioluminescence]×100. […]

B1: NG83: anti-HER3 mAb; light chain CDRs SEQ ID NOs: 7-9, heavy chain CDRs 10-12 (antibody, V domains shown)
VH: QIQLVQSGPELKKRGETVKISCKASGYTFTNYGMNWVRQAPGKGLKCMGWINTYAGEPTYADDFKGRFAFSLDSSASTAYLQINNLKNEDMATYFCARGGITGAMDYWGQGTSVTVSS
VL: DVVMTQKTSSLSTSLGDRVTISCRASQDIRNYLNWYQQKPDGTVKLLIYYTSRLHSGVPSRFSGSGSGTDYSLTISDLEQEDIATYFCQQGNTLPWTFGGGTKLAIK
modifications: VH chain of NG83 polypeptide; VL chain of NG83 polypeptide
- induction of ADCC: strongly or moderately induced ADCC
